Results taken from US20260015399A1 (Boehringer Ingelheim, published 2026).
*1 amine or outer side, *2 acyl side, *3 side chain or, on linkers, in order; H or OH if unused. Side-chain parts run from the residue outwards. The star is where a group is joined. C18 diacid = O=C(O)CCCCCCCCCCCCCCCCC(=O)*; γGlu = O=C(O)[C@H](CCC(=O)[*:2])N[*:1]; Isovaleryl = CC(C)CC(=O)*; Ahx = NCCCCCC(=O)O

T1: human NPY2 receptor (human, UniProt P49146 1-381)
T1 construct: whole, on cells; also called hNPY2-R; hNPY2R
T1 sequence (looked up): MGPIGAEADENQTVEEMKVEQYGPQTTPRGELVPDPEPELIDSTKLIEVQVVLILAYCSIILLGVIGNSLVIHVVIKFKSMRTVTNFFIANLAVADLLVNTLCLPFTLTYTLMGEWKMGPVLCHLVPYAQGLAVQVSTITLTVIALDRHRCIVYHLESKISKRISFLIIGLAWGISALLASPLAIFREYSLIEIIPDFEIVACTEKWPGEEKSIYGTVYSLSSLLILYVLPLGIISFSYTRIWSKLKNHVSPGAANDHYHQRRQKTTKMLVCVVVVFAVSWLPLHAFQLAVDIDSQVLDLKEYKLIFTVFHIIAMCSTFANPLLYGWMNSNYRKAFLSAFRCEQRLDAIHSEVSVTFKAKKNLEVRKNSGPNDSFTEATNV

B1: Compound 9 (peptide)
peptide: Isovaleryl-APEK([Ahx-γGlu-C18 diacid])PEEQATPEELQRYYVSLRHYYNWLTRQRY-NH2
SMILES: CC(C)CC(=O)N[C@@H](C)C(=O)N1CCC[C@H]1C(=O)N[C@@H](CCC(=O)O)C(=O)N[C@@H](CCCCNC(=O)CCCCCNC(=O)CC[C@H](NC(=O)CCCCCCCCCCCCCCCCC(=O)O)C(=O)O)C(=O)N1CCC[C@H]1C(=O)N[C@@H](CCC(=O)O)C(=O)N[C@@H](CCC(=O)O)C(=O)N[C@@H](CCC(N)=O)C(=O)N[C@@H](C)C(=O)N[C@H](C(=O)N1CCC[C@H]1C(=O)N[C@@H](CCC(=O)O)C(=O)N[C@@H](CCC(=O)O)C(=O)N[C@@H](CC(C)C)C(=O)N[C@@H](CCC(N)=O)C(=O)N[C@@H](CCCNC(=N)N)C(=O)N[C@@H](Cc1ccc(O)cc1)C(=O)N[C@@H](Cc1ccc(O)cc1)C(=O)N[C@H](C(=O)N[C@@H](CO)C(=O)N[C@@H](CC(C)C)C(=O)N[C@@H](CCCNC(=N)N)C(=O)N[C@@H](Cc1c[nH]cn1)C(=O)N[C@@H](Cc1ccc(O)cc1)C(=O)N[C@@H](Cc1ccc(O)cc1)C(=O)N[C@@H](CC(N)=O)C(=O)N[C@@H](Cc1c[nH]c2ccccc12)C(=O)N[C@@H](CC(C)C)C(=O)N[C@H](C(=O)N[C@@H](CCCNC(=N)N)C(=O)N[C@@H](CCC(N)=O)C(=O)N[C@@H](CCCNC(=N)N)C(=O)N[C@@H](Cc1ccc(O)cc1)C(N)=O)[C@@H](C)O)C(C)C)[C@@H](C)O
B2: Compound 13 (peptide)
peptide: Isovaleryl-APEK([Ahx-γGlu-C18 diacid])PEADASPEETQRYYVSLRHYYNWLTRQRY-NH2
SMILES: CC(C)CC(=O)N[C@@H](C)C(=O)N1CCC[C@H]1C(=O)N[C@@H](CCC(=O)O)C(=O)N[C@@H](CCCCNC(=O)CCCCCNC(=O)CC[C@H](NC(=O)CCCCCCCCCCCCCCCCC(=O)O)C(=O)O)C(=O)N1CCC[C@H]1C(=O)N[C@@H](CCC(=O)O)C(=O)N[C@@H](C)C(=O)N[C@@H](CC(=O)O)C(=O)N[C@@H](C)C(=O)N[C@@H](CO)C(=O)N1CCC[C@H]1C(=O)N[C@@H](CCC(=O)O)C(=O)N[C@@H](CCC(=O)O)C(=O)N[C@H](C(=O)N[C@@H](CCC(N)=O)C(=O)N[C@@H](CCCNC(=N)N)C(=O)N[C@@H](Cc1ccc(O)cc1)C(=O)N[C@@H](Cc1ccc(O)cc1)C(=O)N[C@H](C(=O)N[C@@H](CO)C(=O)N[C@@H](CC(C)C)C(=O)N[C@@H](CCCNC(=N)N)C(=O)N[C@@H](Cc1c[nH]cn1)C(=O)N[C@@H](Cc1ccc(O)cc1)C(=O)N[C@@H](Cc1ccc(O)cc1)C(=O)N[C@@H](CC(N)=O)C(=O)N[C@@H](Cc1c[nH]c2ccccc12)C(=O)N[C@@H](CC(C)C)C(=O)N[C@H](C(=O)N[C@@H](CCCNC(=N)N)C(=O)N[C@@H](CCC(N)=O)C(=O)N[C@@H](CCCNC(=N)N)C(=O)N[C@@H](Cc1ccc(O)cc1)C(N)=O)[C@@H](C)O)C(C)C)[C@@H](C)O
B3: Compound 22 (peptide)
peptide: Isovaleryl-APEK([Ahx-γGlu-C18 diacid])PEEDPTPEELQRYYVSLRHYYNWLTRQRY-NH2
SMILES: CC(C)CC(=O)N[C@@H](C)C(=O)N1CCC[C@H]1C(=O)N[C@@H](CCC(=O)O)C(=O)N[C@@H](CCCCNC(=O)CCCCCNC(=O)CC[C@H](NC(=O)CCCCCCCCCCCCCCCCC(=O)O)C(=O)O)C(=O)N1CCC[C@H]1C(=O)N[C@@H](CCC(=O)O)C(=O)N[C@@H](CCC(=O)O)C(=O)N[C@@H](CC(=O)O)C(=O)N1CCC[C@H]1C(=O)N[C@H](C(=O)N1CCC[C@H]1C(=O)N[C@@H](CCC(=O)O)C(=O)N[C@@H](CCC(=O)O)C(=O)N[C@@H](CC(C)C)C(=O)N[C@@H](CCC(N)=O)C(=O)N[C@@H](CCCNC(=N)N)C(=O)N[C@@H](Cc1ccc(O)cc1)C(=O)N[C@@H](Cc1ccc(O)cc1)C(=O)N[C@H](C(=O)N[C@@H](CO)C(=O)N[C@@H](CC(C)C)C(=O)N[C@@H](CCCNC(=N)N)C(=O)N[C@@H](Cc1c[nH]cn1)C(=O)N[C@@H](Cc1ccc(O)cc1)C(=O)N[C@@H](Cc1ccc(O)cc1)C(=O)N[C@@H](CC(N)=O)C(=O)N[C@@H](Cc1c[nH]c2ccccc12)C(=O)N[C@@H](CC(C)C)C(=O)N[C@H](C(=O)N[C@@H](CCCNC(=N)N)C(=O)N[C@@H](CCC(N)=O)C(=O)N[C@@H](CCCNC(=N)N)C(=O)N[C@@H](Cc1ccc(O)cc1)C(N)=O)[C@@H](C)O)C(C)C)[C@@H](C)O
B4: Compound 17 (peptide)
peptide: Isovaleryl-APEK([Ahx-γGlu-C18 diacid])PEEDATPEEIQRYYPSLRHYYNWLTRQRY-NH2
SMILES: CC[C@H](C)[C@H](NC(=O)[C@H](CCC(=O)O)NC(=O)[C@H](CCC(=O)O)NC(=O)[C@@H]1CCCN1C(=O)[C@@H](NC(=O)[C@H](C)NC(=O)[C@H](CC(=O)O)NC(=O)[C@H](CCC(=O)O)NC(=O)[C@H](CCC(=O)O)NC(=O)[C@@H]1CCCN1C(=O)[C@H](CCCCNC(=O)CCCCCNC(=O)CC[C@H](NC(=O)CCCCCCCCCCCCCCCCC(=O)O)C(=O)O)NC(=O)[C@H](CCC(=O)O)NC(=O)[C@@H]1CCCN1C(=O)[C@H](C)NC(=O)CC(C)C)[C@@H](C)O)C(=O)N[C@@H](CCC(N)=O)C(=O)N[C@@H](CCCNC(=N)N)C(=O)N[C@@H](Cc1ccc(O)cc1)C(=O)N[C@@H](Cc1ccc(O)cc1)C(=O)N1CCC[C@H]1C(=O)N[C@@H](CO)C(=O)N[C@@H](CC(C)C)C(=O)N[C@@H](CCCNC(=N)N)C(=O)N[C@@H](Cc1c[nH]cn1)C(=O)N[C@@H](Cc1ccc(O)cc1)C(=O)N[C@@H](Cc1ccc(O)cc1)C(=O)N[C@@H](CC(N)=O)C(=O)N[C@@H](Cc1c[nH]c2ccccc12)C(=O)N[C@@H](CC(C)C)C(=O)N[C@H](C(=O)N[C@@H](CCCNC(=N)N)C(=O)N[C@@H](CCC(N)=O)C(=O)N[C@@H](CCCNC(=N)N)C(=O)N[C@@H](Cc1ccc(O)cc1)C(N)=O)[C@@H](C)O
B5: Compound 19 (peptide)
peptide: Isovaleryl-APEK([Ahx-γGlu-C18 diacid])PEEDATEEELQRYYVSLRHYYNWLTRQRY-NH2
SMILES: CC(C)CC(=O)N[C@@H](C)C(=O)N1CCC[C@H]1C(=O)N[C@@H](CCC(=O)O)C(=O)N[C@@H](CCCCNC(=O)CCCCCNC(=O)CC[C@H](NC(=O)CCCCCCCCCCCCCCCCC(=O)O)C(=O)O)C(=O)N1CCC[C@H]1C(=O)N[C@@H](CCC(=O)O)C(=O)N[C@@H](CCC(=O)O)C(=O)N[C@@H](CC(=O)O)C(=O)N[C@@H](C)C(=O)N[C@H](C(=O)N[C@@H](CCC(=O)O)C(=O)N[C@@H](CCC(=O)O)C(=O)N[C@@H](CCC(=O)O)C(=O)N[C@@H](CC(C)C)C(=O)N[C@@H](CCC(N)=O)C(=O)N[C@@H](CCCNC(=N)N)C(=O)N[C@@H](Cc1ccc(O)cc1)C(=O)N[C@@H](Cc1ccc(O)cc1)C(=O)N[C@H](C(=O)N[C@@H](CO)C(=O)N[C@@H](CC(C)C)C(=O)N[C@@H](CCCNC(=N)N)C(=O)N[C@@H](Cc1c[nH]cn1)C(=O)N[C@@H](Cc1ccc(O)cc1)C(=O)N[C@@H](Cc1ccc(O)cc1)C(=O)N[C@@H](CC(N)=O)C(=O)N[C@@H](Cc1c[nH]c2ccccc12)C(=O)N[C@@H](CC(C)C)C(=O)N[C@H](C(=O)N[C@@H](CCCNC(=N)N)C(=O)N[C@@H](CCC(N)=O)C(=O)N[C@@H](CCCNC(=N)N)C(=O)N[C@@H](Cc1ccc(O)cc1)C(N)=O)[C@@H](C)O)C(C)C)[C@@H](C)O
B6: Compound 20 (peptide)
peptide: Isovaleryl-APAK([Ahx-γGlu-C18 diacid])PEEDASPEELQRYQVSLRHYYNWLTRQRY-NH2
SMILES: CC(C)CC(=O)N[C@@H](C)C(=O)N1CCC[C@H]1C(=O)N[C@@H](C)C(=O)N[C@@H](CCCCNC(=O)CCCCCNC(=O)CC[C@H](NC(=O)CCCCCCCCCCCCCCCCC(=O)O)C(=O)O)C(=O)N1CCC[C@H]1C(=O)N[C@@H](CCC(=O)O)C(=O)N[C@@H](CCC(=O)O)C(=O)N[C@@H](CC(=O)O)C(=O)N[C@@H](C)C(=O)N[C@@H](CO)C(=O)N1CCC[C@H]1C(=O)N[C@@H](CCC(=O)O)C(=O)N[C@@H](CCC(=O)O)C(=O)N[C@@H](CC(C)C)C(=O)N[C@@H](CCC(N)=O)C(=O)N[C@@H](CCCNC(=N)N)C(=O)N[C@@H](Cc1ccc(O)cc1)C(=O)N[C@@H](CCC(N)=O)C(=O)N[C@H](C(=O)N[C@@H](CO)C(=O)N[C@@H](CC(C)C)C(=O)N[C@@H](CCCNC(=N)N)C(=O)N[C@@H](Cc1c[nH]cn1)C(=O)N[C@@H](Cc1ccc(O)cc1)C(=O)N[C@@H](Cc1ccc(O)cc1)C(=O)N[C@@H](CC(N)=O)C(=O)N[C@@H](Cc1c[nH]c2ccccc12)C(=O)N[C@@H](CC(C)C)C(=O)N[C@H](C(=O)N[C@@H](CCCNC(=N)N)C(=O)N[C@@H](CCC(N)=O)C(=O)N[C@@H](CCCNC(=N)N)C(=O)N[C@@H](Cc1ccc(O)cc1)C(N)=O)[C@@H](C)O)C(C)C

Target: T1, human NPY2 receptor
Test: RLB: displacement of 125I-PYY(1-36) from hNPY2R membranes
Procedure: The filtration RLB assay was carried out in 96-well plates in a final volume of 100 μl per well. Freeze-dried test peptides were dissolved in 100% dimethyl sulfoxide (DMSO) to stock solutions of 1 mM and serial dilutions were performed in assay buffer (50 mM HEPES, 5 mM MgCl₂, 1 mM CaCl₂), pH 7.4) containing 0.2% ovalbumin. […] Next, 80 μL membranes (HTS066M, ChemiSCREEN™ Human Neuropeptide Y2 Receptor Membrane Preparation, CHEMICON) were added to each well to give a final protein concentration of 0.5 μg/well. The plates were sealed and incubated at room temperature for 2 hours in a plate shaker set at 400 rpm. The incubation was stopped by vacuum filtration onto 0.5% polyethylene amine (PEI) presoaked GF/C filters using a 96-well FilterMate™ harvester (Perkin Elmer) followed by four washes with 300 μl/well ice-cold wash buffer (50 mM HEPES, 500 mM NaCl, pH7.4). Filter plates were then dried for 60 min at room temperature and the bottom of the plates was sealed with backing tape UniFilter-96. Finally, 50 μl/well scintillation counter cocktail (Microscint20, Packard) was added and the radioactivity was counted in the Packard TopCount NXT scintillation counter. IC₅₀ values (the half maximal inhibitory concentration of the agonist) were calculated by nonlinear regression analysis of sigmoidal dose-response curves.

| Ki [nM] | Binder |
| --- | --- |
| 3.32 | B1 |
| 1.53 | B2 |
| 4.98 | B3 |
| 24.6 | B4 |
| 9.63 | B5 |
| 2.41 | B6 |
